Test results as given in patent US20230235075A1 (published 2023).

Columns and labels:
[1] = target: T1, Human CD93 recombinant protein (Sino Biological Inc, Catalog #12589-H08H) (human, UniProt Q9NPY3 22-580, biotinylated with EZ-LINK NHS-PEG4 biotin in the Octet assays); assay: Octet
T1 chain: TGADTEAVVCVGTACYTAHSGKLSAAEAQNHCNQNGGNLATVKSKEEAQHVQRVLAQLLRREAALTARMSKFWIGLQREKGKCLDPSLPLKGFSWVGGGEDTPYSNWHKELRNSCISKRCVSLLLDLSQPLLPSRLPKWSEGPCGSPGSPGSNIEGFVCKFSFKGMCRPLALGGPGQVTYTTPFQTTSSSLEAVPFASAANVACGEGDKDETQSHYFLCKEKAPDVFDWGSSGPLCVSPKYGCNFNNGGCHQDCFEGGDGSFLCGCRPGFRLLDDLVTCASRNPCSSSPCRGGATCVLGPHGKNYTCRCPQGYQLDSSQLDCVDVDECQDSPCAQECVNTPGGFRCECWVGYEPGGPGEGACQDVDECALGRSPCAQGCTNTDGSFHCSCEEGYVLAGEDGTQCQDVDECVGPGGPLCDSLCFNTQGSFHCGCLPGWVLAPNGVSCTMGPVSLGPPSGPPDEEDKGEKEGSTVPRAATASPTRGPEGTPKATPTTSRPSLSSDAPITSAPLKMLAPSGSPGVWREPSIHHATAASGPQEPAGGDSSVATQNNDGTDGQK

[2] = target: T1, Human CD93 recombinant protein (Sino …); assay: ELISA
[3] = target: T1, Human CD93 recombinant protein (Sino …); assay: ELISA
[4] = target: T1, Human CD93 recombinant protein (Sino …); assay: BLI (Octet)
[5] = target: T1, Human CD93 recombinant protein (Sino …); assay: BLI
[6] = target: T2, cynomolgus CD93 protein (made in-house) (cynomolgus, UniProt A0A2K5VH53 22-580, biotinylated with EZ-LINK NHS-PEG4 biotin in the Octet assays); assay: BLI
T2 chain: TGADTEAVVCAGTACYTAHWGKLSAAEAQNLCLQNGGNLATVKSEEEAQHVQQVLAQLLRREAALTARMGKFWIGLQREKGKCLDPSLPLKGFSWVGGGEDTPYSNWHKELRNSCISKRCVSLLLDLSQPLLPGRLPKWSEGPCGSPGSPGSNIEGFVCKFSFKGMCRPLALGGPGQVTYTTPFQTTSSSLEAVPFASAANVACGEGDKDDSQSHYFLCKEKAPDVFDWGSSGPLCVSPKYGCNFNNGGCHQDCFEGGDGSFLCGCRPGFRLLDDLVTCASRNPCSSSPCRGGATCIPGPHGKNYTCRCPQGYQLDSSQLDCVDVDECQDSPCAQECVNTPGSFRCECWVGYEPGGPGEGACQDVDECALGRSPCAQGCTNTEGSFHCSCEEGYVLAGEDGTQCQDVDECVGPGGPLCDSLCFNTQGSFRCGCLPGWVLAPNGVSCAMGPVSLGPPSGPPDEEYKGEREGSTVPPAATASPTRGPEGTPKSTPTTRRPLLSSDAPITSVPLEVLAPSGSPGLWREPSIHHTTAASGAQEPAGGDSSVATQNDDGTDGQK

[7] = target: T1, Human CD93 recombinant protein (Sino …); assay: ELISA; unit printed as pmM
[8] = target: T1, Human CD93 recombinant protein (Sino …); assay: Octet BLI
[9] = target: T1, Human CD93 recombinant protein (Sino …); assay: ELISA

B1: 7F3 (hybridoma) (antibody, V domains shown)
VH: QVQLQQSGADLVRPGASVKLSCKASGYTFTDYEMHWVKQTPVYGLEWIGGIDPETGDTAYNQNFKGKATLTADKSSSAAYMELRSLTSEDSAVYYCTNYGNLYYYAMDYWGQGTSVTVSS
VL: ENVLTQSPAIMSASPGEKVTMTCRASSSVSSSYLHWYQQKSGASPKLWIYSTSNLAFGVPARFSGSGSGTSYSLTISSVEAEDAATYYCQQYSGYPLTFGSGTKLEIK
A Kd [1] of 0.493 nM, an EC50 [2] of 0.0667 nM and an EC50 [3] of 0.0667 nM were found for B1 in this work. The Kd [4] was 1.26 nM.

B2: 16E4 (hybridoma) (antibody, V domains shown)
VH: QVQLQQPGAELVKPGASVKLSCKASGYTFTSYWMHWVKQRPGQGLEWIGEIDPSASYTYYNQKFKGKATLTVDKSSSTAYMQLSSLTSEDSAVYYCARSVYYGNKYFDVWGAGTTVTVSS
VL: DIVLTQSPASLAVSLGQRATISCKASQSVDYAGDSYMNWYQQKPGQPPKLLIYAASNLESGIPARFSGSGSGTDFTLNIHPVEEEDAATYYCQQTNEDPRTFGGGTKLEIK
A Kd [5] of 0.447 nM, a Kd [6] of 0.446 nM and a Kd [1] of 0.334 nM were found for B2 in this work. It also gave an EC50 [3] of 0.112 nM and an EC50 [7] of 0.112 nM.

B3: 7F3-hIgG1 (antibody, V domains shown)
VH: B1 VH
VL: B1 VL
A Kd [1] of 0.588 nM, an EC50 [3] of 0.041 nM and a Kd [8] of 0.588 nM were found for B3 in this work.

B4: Humanized 17B10 (VH3VL3, i.e., H3L3) (antibody, V domains shown)
VH: QVQLVQSGPEVKKPGESLKISCKASGYAFSSYWLNWVRQMPGKGLEWMGRIYPGDGDTDYNGKFKGQVTISADKSSGTAYLQLSSLKASDTAVYFCVRGDGYWAMDYWGQGTLVTVSS
VL: DIVMTQSPDSLAVSLGERATINCRFSKSLLHSNGITYLYWYQQKPGQPPKLLIYQMSNLASGVPDRFSGSGSGTDFTLTISSLQAEDVAVYYCAQNLELPWTFGGGTKLEIK
An EC50 [9] of 0.213 nM was found for B4 in this work.

B5: 10B1 (antibody, V domains shown)
VH: QVQLKQSGPGLVQPSQSLSITCTVSDFSLSSFGVNWVRQPPGKGLEWLGVIWSGGSTDYNVAFISRLSISKDNSKSQVFFKMNNLQADDTAIYYCARNWRYDGYFYAMDYWGQGTSVTVSS
VL: DIVMTQSQKFMSTSTGDRVSVTCKASQNVGTNVAWYQQKPGQSPKALIYSASYRFIGVPDRFTGSGSGTDFTLTITNVQSEDLAEYFCQQYNRNPITFGSGTKLEIK
A Kd [4] of 0.904 nM was found for B5 in this work.

B6: recombinant parental 17B10-hFc (antibody, V domains shown)
VH: QVQLQQSGPELVKPGASVKISCKASGYAFSSYWLNWVKQRPGKGLEWFGRIYPGDGDTDYNGKFKGKATLTADKSSSTAYMQLRSLTSEDSAVYFCVRGDGYWAMDYWGQGTSVTVSS
VL: DIVMTQAAFSNPVTLGTSASISCRFSKSLLHSNGITYLYWYLQKPGQSPQLLIYQMSNLASGVPDRFSSSGSGTDFTLRISRVEAEDVGVYYCAQNLELPWTFGGGTKLEIK
An EC50 [9] of 0.0167 nM was found for B6 in this work.

B7: 16E4-hIgG1 (antibody, V domains shown)
VH: B2 VH
VL: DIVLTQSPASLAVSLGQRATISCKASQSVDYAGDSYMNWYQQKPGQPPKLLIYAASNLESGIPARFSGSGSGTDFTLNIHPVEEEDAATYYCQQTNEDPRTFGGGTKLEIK
An EC50 [9] of 0.041 nM, a Kd [1] of 0.135 nM and an EC50 [2] of 0.022 nM were found for B7 in this work. For the same binder, the EC50 [3] was 0.041 nM and the Kd [8] was 0.135 nM.

B8: 17B10 (hybridoma) (antibody, V domains shown)
VH: B6 VH
VL: B6 VL
An EC50 [9] of 0.153 nM was found for B8 in this work.
